For 1 molecule, Kd and koff results are on record in PMC7265355 (2020).

The target in assay [1] is T1, ACE2-Ig (extracellular domain of human ACE2 linked to the Fc domain of human IgG1) (human, UniProt Q9BYF1 18-740). As to the kind of experiment: SPR. On the technique in general: In SPR one partner is held on a chip, and binding of the other changes the refractive index at the surface.
Assay [2] addresses T1, ACE2-Ig (extracellular domain of human …). As to the kind of experiment: SPR. This is another data set of the same source.

T1 sequence (Q9BYF1 18-740): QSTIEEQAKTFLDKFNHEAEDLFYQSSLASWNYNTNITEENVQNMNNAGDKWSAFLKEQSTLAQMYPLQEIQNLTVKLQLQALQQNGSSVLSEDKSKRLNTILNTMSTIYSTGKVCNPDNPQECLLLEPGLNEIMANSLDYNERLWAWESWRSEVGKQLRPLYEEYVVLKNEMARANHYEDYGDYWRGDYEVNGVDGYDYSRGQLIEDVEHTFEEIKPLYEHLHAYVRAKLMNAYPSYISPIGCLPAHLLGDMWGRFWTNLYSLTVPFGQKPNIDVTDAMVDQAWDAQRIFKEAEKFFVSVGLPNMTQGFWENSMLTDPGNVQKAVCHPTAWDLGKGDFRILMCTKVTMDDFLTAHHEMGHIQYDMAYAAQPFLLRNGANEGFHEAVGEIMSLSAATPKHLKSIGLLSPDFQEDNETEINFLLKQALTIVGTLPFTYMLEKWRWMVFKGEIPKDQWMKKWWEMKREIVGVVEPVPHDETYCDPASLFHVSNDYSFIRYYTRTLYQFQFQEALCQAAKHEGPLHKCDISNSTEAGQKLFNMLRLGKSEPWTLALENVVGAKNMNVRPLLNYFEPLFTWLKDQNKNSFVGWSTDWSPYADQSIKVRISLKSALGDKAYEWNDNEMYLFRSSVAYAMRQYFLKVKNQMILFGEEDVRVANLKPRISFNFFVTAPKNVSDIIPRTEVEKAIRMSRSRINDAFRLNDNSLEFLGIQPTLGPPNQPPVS

B1: SARS-CoV S protein (natural protein)
chain: not shown
Take B1: the Kd – broadly, the free concentration of one partner at which half of the binding sites on the other are occupied at equilibrium, for simple one-to-one binding – in assay [1] came to 177 nM. Besides, the dissociation rate constant (koff) (usually a measure of how fast the partners let go of each other) in assay [2] was 0.00294 s⁻¹.
